Source: US20220119534A1 (DRAGONFLY THERAPEUTICS, published 2022)
Residue numbers refer to the chain shown, from its start.

Key:
[1] = target: T1, recombinant human CD16a V158 (human, UniProt P08637 17-208, biotinylated); experiment: SPR
T1 construct: also called FcγRIIIa V158; hCD16aV

[2] = target: T2, human CLEC12A-K244Q-His (human, UniProt Q5QGZ9 65-265); experiment: SPR
T2 construct: Polymorphic variant; also called hCLEC12A-K244Q; CLEC12A (Q244)
T2 chain: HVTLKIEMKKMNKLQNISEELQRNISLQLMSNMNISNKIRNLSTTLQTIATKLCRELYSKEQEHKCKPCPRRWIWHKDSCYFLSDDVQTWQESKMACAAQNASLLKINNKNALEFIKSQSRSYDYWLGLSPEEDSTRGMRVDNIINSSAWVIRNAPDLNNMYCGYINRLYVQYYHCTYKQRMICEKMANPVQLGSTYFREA

[3] = target: T3, recombinant cynomolgus CLEC12A-His (cynomolgus monkey, UniProt A0A2K5WXQ4 71-271); experiment: SPR 37C
T3 construct: also called cCLEC12A-His; cCLEC12A
T3 sequence: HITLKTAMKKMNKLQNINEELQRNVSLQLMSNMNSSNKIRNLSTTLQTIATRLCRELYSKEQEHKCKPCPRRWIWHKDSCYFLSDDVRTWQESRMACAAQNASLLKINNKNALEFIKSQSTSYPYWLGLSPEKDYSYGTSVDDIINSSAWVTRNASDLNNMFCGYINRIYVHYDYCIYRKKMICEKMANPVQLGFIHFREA

[4] = target: T4, recombinant human CLEC12A-His (human, UniProt Q5QGZ9 65-265); experiment: SPR
T4 construct: also called hCLEC12A-His; hCLEC12A
T4 sequence: T2 chain with Q180K

[5] = target: T5, human CLEC12A expressed on cells (human, UniProt Q5QGZ9 1-265); experiment: flow cytometry, HL60
T5 construct: Transduced isogenic cells or endogenous expression on AML cells; also called RMA-hCLEC12A; Ba/F3-hCLEC12A
T5 sequence: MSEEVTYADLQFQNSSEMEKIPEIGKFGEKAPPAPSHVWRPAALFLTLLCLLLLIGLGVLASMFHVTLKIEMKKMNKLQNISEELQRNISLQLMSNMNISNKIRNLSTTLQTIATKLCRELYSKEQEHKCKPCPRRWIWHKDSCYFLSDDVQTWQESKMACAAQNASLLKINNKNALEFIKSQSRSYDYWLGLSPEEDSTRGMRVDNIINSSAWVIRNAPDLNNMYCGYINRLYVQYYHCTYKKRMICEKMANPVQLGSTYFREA

[6] = target: T4, recombinant human CLEC12A-His; experiment: SPR screening, semi-purified
[7] = target: T5, human CLEC12A expressed on cells; experiment: flow cytometry, hCLEC12A+ Ba/F3
[8] = target: T5, human CLEC12A expressed on cells; experiment: flow cytometry on HL-60 cells, fold over background
Experimental: The cells were then incubated with a fluorophore conjugated anti-human IgG secondary antibody and were analyzed by flow cytometry. The mean fluorescence intensity (MFI) values were normalized to secondary antibody only controls to obtain fold over background (FOB) values.
100,000 cells were seeded per well into a 96-well plate for FACS staining. Cells were washed with PBS. Cells were incubated in a 1:2000 dilution of live/dead dye in PBS for 15 minutes, then washed with FACS buffer. TriNKETs or mAbs were diluted into FACS buffer, and 50 μl containing diluted TriNKET or mAb was added to cells. Cells were incubated on ice for 20 minutes. After the incubation, cells were washed with FACS buffer. Anti-human IgG-Fc secondary antibody was diluted into FACS buffer, and 50 μl was added per well for detection of the bound TriNKETs or mAbs. Cells were incubated for 20 minutes on ice, then washed with FACS buffer. 50 μl of fixation buffer was added to each well, and cells were incubated for 10 minutes at room temperature. Cells were washed with FACS buffer and resuspended in FACS buffer for analysis with BD FACS Celesta SN #H66034400085, or BD FACS Celesta SN #H66034400160. Cells of interest were identified using FSC vs. SSC plot, and an appropriately shaped gate was drawn around the cells. Within the gated cells, doublet cells were removed by viewing FSC-H vs FSC-A plot. Within the single cell population, live cells were gated. Within the live gate, the mean fluorescence intensity (MFI) of each sample and the secondary-only control was calculated. Fold-over-background (FOB) was calculated as the ratio of test article MFI over secondary-only background MFI. Data were fit to a four-parameter non-linear regression curve using GraphPad Prism 7.0.

[9] = target: T4, recombinant human CLEC12A-His; experiment: SPR; sensorgrams of a CLEC12A concentration series with fit overlays (response up to about 28, time axis 0 to about 900)
[10] = target: T5, human CLEC12A expressed on cells; experiment: flow cytometry (MFI) on CLEC12A+ PL21 AML cells, about 0.04 to 27 nM, plateau about 1150 MFI; the molecule is assigned by panel order and legend paragraph 296

T1 sequence (P08637 17-208 F176V limits assumed): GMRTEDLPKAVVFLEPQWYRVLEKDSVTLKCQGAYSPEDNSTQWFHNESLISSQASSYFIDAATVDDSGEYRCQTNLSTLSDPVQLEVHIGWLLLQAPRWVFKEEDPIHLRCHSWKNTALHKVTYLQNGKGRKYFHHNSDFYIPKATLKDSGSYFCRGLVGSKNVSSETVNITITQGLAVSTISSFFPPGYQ

fold difference in affinity vs trastuzumab [1]: ~2 fold
fold difference in affinity vs CLEC12A WT [2]: ≤ 2.5 fold
binding result [3]: no binding (tested: 100 nM)
Kd [4]: 1.2 nM
EC50 [5]: 0.6 nM
Max binding MFI [5]: 503 MFI
Kd [6]: 1.26 nM
koff [6]: 0.00138 s⁻¹
kon [6]: 1.09e+06 M⁻¹ s⁻¹
EC50 [7]: 0.7 nM
Max binding MFI [7]: 10200 MFI
EC50 (read off the curve) [8]: ~1 nM
Kd [9]: 1.66 nM
EC50 [10]: 0.27 nM
B1: AB0192 TriNKET (other)
chain: EVQLVESGGGVVQPGGSLRLSCAASGFTFNAFGMHWVRQAPGKCLEWVAFISSGSTSIYYANTVKGRFTISRDNSKNTLYLQMNSLRAEDTAVYYCARDGYPTGGAMDYWGQGTSVTVSSGGGGSGGGGSGGGGSGGGGSDIQMTQSPSSLSASVGDRVTITCKASQDIYNYLSWFQQKPGKAPKPLIYRANILVSGVPSRFSGSGSGQDYTFTISSLQPEDIATYYCLQFDAFPFTFGCGTKLEIKGSDKTHTCPPCPAPELLGGPSVFLFPPKPKDTLMISRTPEVTCVVVDVSHEDPEVKFNWYVDGVEVHNAKTKPREEQYNSTYRVVSVLTVLHQDWLNGKEYKCKVSNKALPAPIEKTISKAKGQPREPRVYTLPPCRDELTKNQVSLTCLVKGFYPSDIAVEWESNGQPENNYKTTPPVLVSDGSFTLYSKLTVDKSRWQQGNVFSCSVMHEALHNHYTQKSLSLSPG
heavy: EVQLVESGGGLVKPGGSLRLSCAASGFTFSSYSMNWVRQAPGKGLEWVSSISSSSSYIYYADSVKGRFTISRDNAKNSLYLQMNSLRAEDTAVYYCARGAPIGAAAGWFDPWGQGTLVTVSSASTKGPSVFPLAPSSKSTSGGTAALGCLVKDYFPEPVTVSWNSGALTSGVHTFPAVLQSSGLYSLSSVVTVPSSSLGTQTYICNVNHKPSNTKVDKKVEPKSCDKTHTCPPCPAPELLGGPSVFLFPPKPKDTLMISRTPEVTCVVVDVSHEDPEVKFNWYVDGVEVHNAKTKPREEQYNSTYRVVSVLTVLHQDWLNGKEYKCKVSNKALPAPIEKTISKAKGQPREPQVCTLPPSRDELTENQVSLTCLVKGFYPSDIAVEWESNGQPENNYKTTPPVLDSDGSFFLYSWLTVDKSRWQQGNVFSCSVMHEALHNHYTQKSLSLSPG
light: DIQMTQSPSSVSASVGDRVTITCRASQGISSWLAWYQQKPGKAPKLLIYAASSLQSGVPSRFSGSGSGTDFTLTISSLQPEDFATYYCQQGVSFPRTFGGGTKVEIKRTVAAPSVFIFPPSDEQLKSGTASVVCLLNNFYPREAKVQWKVDNALQSGNSQESVTEQDSKDSTYSLSSTLTLSKADYEKHKVYACEVTHQGLSSPVTKSFNRGEC
notes: Humanized 9F11.B7 scFv-Fc, A49MI Fab-Fc
